Changes are numbered by the printed parent chain. One block for each binder: values may come before it.
Assays:
Assay in all cases: SPR (Biacore 8K), species cross test, antibody captured on anti-human capture CM5 chip, antigen as analyte, 1:1 model
Human CD39 antigen = target: T1, Human CD39 antigen (human, UniProt P49961 38-478)
T1 construct: Antigen used as analyte in SPR; also called ENTPD1
T1 sequence (looked up): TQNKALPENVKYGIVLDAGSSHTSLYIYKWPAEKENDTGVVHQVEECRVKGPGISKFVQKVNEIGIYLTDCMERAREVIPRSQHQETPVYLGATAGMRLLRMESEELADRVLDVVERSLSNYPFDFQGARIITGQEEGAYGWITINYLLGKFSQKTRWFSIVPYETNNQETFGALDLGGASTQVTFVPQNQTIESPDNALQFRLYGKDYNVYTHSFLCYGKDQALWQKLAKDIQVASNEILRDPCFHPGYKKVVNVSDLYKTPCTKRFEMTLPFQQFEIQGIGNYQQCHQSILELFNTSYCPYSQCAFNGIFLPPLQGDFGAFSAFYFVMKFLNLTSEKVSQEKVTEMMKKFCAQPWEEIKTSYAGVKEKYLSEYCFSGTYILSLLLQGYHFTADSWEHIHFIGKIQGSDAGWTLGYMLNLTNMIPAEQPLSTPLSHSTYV
Method: (§1) The experimental method is as follows:
(§2) An Anti-Human Capture-CM5 chip (GE, #BR-1005-30) was prepared using coupling methods of a Human Antibody Capture Kit (GE, #BR-1008-39) and an amino coupling kit (GE, BR-1000-50). The chip was equilibrated at room temperature for about 20-30 min and loaded into a Biacore 8K instrument. The antigen and antibody were diluted to an experimental working concentration using an equilibration buffer. The antigen was diluted with an equilibrium buffer to 50 nM, and then diluted three-fold for seven concentration gradients, and two zero concentrations (i.e., the equilibrium buffer) and one repeat concentration (typically the lowest concentration repeat) were set. Experimental analysis was performed on 10 antigen concentrations (2 zero concentrations, 7 gradient concentrations, and 1 repeated concentration) in a cyclic manner according to an order of antibody, antigen, and regeneration. The antigen injection flow rate was 30 μL/min, the binding time was 120 s, and the dissociation time was 600 s. Following the analysis, the data was analyzed using the corresponding analysis program to confirm that there was no obvious reference binding. Using Kinetics and a 1:1 binding model, the data was fit to obtain the kinetic related parameters Ka, Kd, and KD values of the bispecific antibodies.

Human CD73 antigen = target: T2, Human CD73 antigen (human, UniProt P21589 27-547, limits assumed)
T2 construct: Antigen used as analyte in SPR; also called NT5E
T2 sequence (looked up): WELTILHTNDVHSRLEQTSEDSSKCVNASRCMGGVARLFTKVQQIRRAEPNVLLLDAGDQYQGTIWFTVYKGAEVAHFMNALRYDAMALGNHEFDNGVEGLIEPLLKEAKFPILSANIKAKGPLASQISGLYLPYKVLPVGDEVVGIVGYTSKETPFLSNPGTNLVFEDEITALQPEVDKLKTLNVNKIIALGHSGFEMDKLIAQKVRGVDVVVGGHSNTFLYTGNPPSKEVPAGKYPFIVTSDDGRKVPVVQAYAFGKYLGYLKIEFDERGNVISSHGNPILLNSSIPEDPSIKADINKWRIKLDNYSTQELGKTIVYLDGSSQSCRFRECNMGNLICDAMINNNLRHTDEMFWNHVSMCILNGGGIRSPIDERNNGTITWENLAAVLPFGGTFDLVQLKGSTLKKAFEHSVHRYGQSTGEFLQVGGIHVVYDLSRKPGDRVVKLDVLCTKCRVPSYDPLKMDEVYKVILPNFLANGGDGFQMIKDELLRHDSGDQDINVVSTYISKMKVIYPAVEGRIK
Method: as §1, §2

Cynomolgus CD73 antigen = target: T3, Cynomolgus CD73 antigen (cynomolgus, UniProt A0A2K5V5U7 27-547)
T3 construct: Antigen used as analyte in SPR
T3 sequence: T2 sequence (looked up) with M199T, T350A, V466I
Method: as §1, §2

Cynomolgus CD39 antigen = target: T4, Cynomolgus CD39 antigen (cynomolgus, UniProt A0A7N9DGH8 38-478)
T4 construct: Antigen used as analyte in SPR
T4 sequence: T1 sequence (looked up) with V10I, F57Y, V184I, I193T, I292V, K331N, A354S
Method: as §1, §2

Kd (Human CD39 antigen): 0.0918 nM
koff (Human CD39 antigen): 9.54e-05 s⁻¹
kon (Human CD39 antigen): 1.04e+06 M⁻¹ s⁻¹
Kd (Human CD73 antigen): 0.425 nM
koff (Human CD73 antigen): 0.000249 s⁻¹
kon (Human CD73 antigen): 587000 M⁻¹ s⁻¹
Kd (Cynomolgus CD73 antigen): 0.326 nM
koff (Cynomolgus CD73 antigen): 0.000148 s⁻¹
kon (Cynomolgus CD73 antigen): 456000 M⁻¹ s⁻¹
Kd (Cynomolgus CD39 antigen): 2.69 nM
koff (Cynomolgus CD39 antigen): 0.00163 s⁻¹
kon (Cynomolgus CD39 antigen): 606000 M⁻¹ s⁻¹
B1: CD39/CD73 bispecific antibody 700038 (CD39-VHH-CD73-IgG) (bispecific antibody)
heavy: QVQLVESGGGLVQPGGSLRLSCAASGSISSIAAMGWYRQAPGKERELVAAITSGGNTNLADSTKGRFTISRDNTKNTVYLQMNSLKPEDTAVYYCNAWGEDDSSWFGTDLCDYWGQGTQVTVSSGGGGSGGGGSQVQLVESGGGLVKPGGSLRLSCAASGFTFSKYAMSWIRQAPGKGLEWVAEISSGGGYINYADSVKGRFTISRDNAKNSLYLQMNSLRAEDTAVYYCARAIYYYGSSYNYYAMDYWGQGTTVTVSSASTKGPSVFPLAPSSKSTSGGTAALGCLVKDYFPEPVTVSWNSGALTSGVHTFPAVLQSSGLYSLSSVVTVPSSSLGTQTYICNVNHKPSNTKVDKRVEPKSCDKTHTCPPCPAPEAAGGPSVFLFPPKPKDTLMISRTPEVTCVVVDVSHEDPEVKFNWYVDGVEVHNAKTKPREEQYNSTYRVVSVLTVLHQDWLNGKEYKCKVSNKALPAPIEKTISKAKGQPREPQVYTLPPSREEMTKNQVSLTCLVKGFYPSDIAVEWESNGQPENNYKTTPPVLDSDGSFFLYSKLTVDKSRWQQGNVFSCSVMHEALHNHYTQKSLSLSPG
light: DIQMTQSPSSLSASVGDRVTITCRASQDVGTAEAWYQQKPGKAPKLLIYWASTRHTGVPSRFSGSGSGTDFTLTISSLQPEDFATYYCQQYSSYPLTFGQGTKLEIKRTVAAPSVFIFPPSDEQLKSGTASVVCLLNNFYPREAKVQWKVDNALQSGNSQESVTEQDSKDSTYSLSSTLTLSKADYEKHKVYACEVTHQGLSSPVTKSFNRGEC

B2: CD39/CD73 bispecific antibody 700035 (CD39-VHH-CD73-IgG) (bispecific antibody)
heavy: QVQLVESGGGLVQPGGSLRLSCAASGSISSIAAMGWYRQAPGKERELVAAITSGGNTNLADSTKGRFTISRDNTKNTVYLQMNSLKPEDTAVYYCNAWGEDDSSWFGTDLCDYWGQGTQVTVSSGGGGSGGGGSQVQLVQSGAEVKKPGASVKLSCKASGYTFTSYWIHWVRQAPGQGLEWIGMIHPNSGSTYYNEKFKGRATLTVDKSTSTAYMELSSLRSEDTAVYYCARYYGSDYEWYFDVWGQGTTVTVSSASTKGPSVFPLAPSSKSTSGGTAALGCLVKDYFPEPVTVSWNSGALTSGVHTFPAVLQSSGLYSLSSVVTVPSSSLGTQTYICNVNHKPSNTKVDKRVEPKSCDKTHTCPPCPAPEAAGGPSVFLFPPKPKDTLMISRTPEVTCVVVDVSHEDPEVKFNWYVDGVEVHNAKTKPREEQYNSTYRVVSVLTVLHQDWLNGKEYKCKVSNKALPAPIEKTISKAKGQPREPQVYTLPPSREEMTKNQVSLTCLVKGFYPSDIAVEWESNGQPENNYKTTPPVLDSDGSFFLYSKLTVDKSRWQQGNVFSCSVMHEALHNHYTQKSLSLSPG
light: DIQMTQSPSSMSASVGDRVTITCKASQNVRTAVVWYQQKPGKAPKALIYLASNRHTGVPDRFSGSGSGTDFTLTISSLQPEDFATYFCLQHWNYPYTFGQGTKLEIKRTVAAPSVFIFPPSDEQLKSGTASVVCLLNNFYPREAKVQWKVDNALQSGNSQESVTEQDSKDSTYSLSSTLTLSKADYEKHKVYACEVTHQGLSSPVTKSFNRGEC
Kd (Human CD39 antigen): 0.0708 nM
koff (Human CD39 antigen): 9.28e-05 s⁻¹
kon (Human CD39 antigen): 1.31e+06 M⁻¹ s⁻¹
Kd (Human CD73 antigen): 0.341 nM
koff (Human CD73 antigen): 0.000319 s⁻¹
kon (Human CD73 antigen): 935000 M⁻¹ s⁻¹
Kd (Cynomolgus CD73 antigen): 0.409 nM
koff (Cynomolgus CD73 antigen): 0.000342 s⁻¹
kon (Cynomolgus CD73 antigen): 836000 M⁻¹ s⁻¹
Kd (Cynomolgus CD39 antigen): 2.61 nM
koff (Cynomolgus CD39 antigen): 0.00161 s⁻¹
kon (Cynomolgus CD39 antigen): 618000 M⁻¹ s⁻¹

From patent US20250361314A1 (SHANGHAI HUAOTA BIOPHARMACEUTICAL, published 2025)
